# Data from publication PMC2196876.
# Target: epitope-tagged full-length hVam6p (HA–hVam6p and Myc–hVam6p) (human)
# Assay: sucrose gradient sedimentation velocity with immunoprecipitation of fractions
substance,measurement,value
epitope-tagged full-length hVam6p (HA–hVam6p and Myc–hVam6p) (natural protein),stoichiometry N,3
